From patent US20070065890

How the values were obtained:
[1] = molecular target: purified recombinant HA-H1b (expressed in E. coli), P10412
[2] = molecular target: H1 histones isolated from cells treated with TSA and nicotinamide, P10412
[3] = molecular target: histone H1 (purified calf thymus H1)

Chain of purified recombinant HA-H1b (expressed in E. coli), P10412 (P10412 whole entry, looked up): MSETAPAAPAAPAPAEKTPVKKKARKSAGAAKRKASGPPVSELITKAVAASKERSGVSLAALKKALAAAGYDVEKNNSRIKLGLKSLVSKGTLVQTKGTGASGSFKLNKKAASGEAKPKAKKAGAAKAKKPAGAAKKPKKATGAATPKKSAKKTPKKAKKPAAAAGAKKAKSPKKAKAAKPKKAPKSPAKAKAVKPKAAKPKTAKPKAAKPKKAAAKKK
Chain of H1 histones isolated from cells treated with TSA and nicotinamide, P10412 (P10412 whole entry, looked up): as above

B1: recombinant SirT2 (protein)
chain: MAEPDPSHPLETQAGKVQEAQDSDSDSEGGAAGGEADMDFLRNLFSQTLSLGSQKERLLDELTLEGVARYMQSERCRRVICLVGAGISTSAGIPDFRSPSTGLYDNLEKYHLPYPEAIFEISYFKKHPEPFFALAKELYPGQFKPTICHYFMRLLKDKGLLLRCYTQNIDTLERIAGLEQEDLVEAHGTFYTSHCVSASCRHEYPLSWMKEKIFSEVTPKCEDCQSLVKPDIVFFGESLPARFFSCMQSDFLKVDLLLVMGTSLQVQPFASLISKAPLSTPRLLINKEKAGQSDPFLGMIMGLGGGMDFDSKKAYRDVAWLGECDQGCLALAELLGWKKELEDLVRREHASIDAQSGAGVPNPSTSASPKKSPPPAKDEARTTEREKPQ
release of [3H]-acetyl label from p300-acetylated recombinant H1b [1]: SirT2 or SirT3 failed to significantly deacetylate H1b

B2: baculovirus-expressed recombinant FLAG-SirT1 protein (protein)
chain: MADEAALALQPGGSPSAAGADREAASSPAGEPLRKRPRRDGPGLERSPGEPGGAAPEREVPAAARGCPGAAAAALWREAEAEAAAAGGEQEAQATAAAGEGDNGPGLQGPSREPPLADNLYDEDDDDEGEEEEEAAAAAIGYRDNLLFGDEIITNGFHSCESDEEDRASHASSSDWTPRPRIGPYTFVQQHLMIGTDPRTILKDLLPETIPPPELDDMTLWQIVINILSEPPKRKKRKDINTIEDAVKLLQECKKIIVLTGAGVSVSCGIPDFRSRDGIYARLAVDFPDLPDPQAMFDIEYFRKDPRPFFKFAKEIYPGQFQPSLCHKFIALSDKEGKLLRNYTQNIDTLEQVAGIQRIIQCHGSFATASCLICKYKVDCEAVRGDIFNQVVPRCPRCPADEPLAIMKPEIVFFGENLPEQFHRAMKYDKDEVDLLIVIGSSLKVRPVALIPSSIPHEVPQILINREPLPHLHFDVELLGDCDVIINELCHRLGGEYAKLCCNPVKLSEITEKPPRTQKELAYLSELPPTPLHVSEDSSSPERTSPPDSSVIVTLLDQAAKSNDDLDVSESKGCMEEKPQEVQTSRNVESIAEQMENPDLKNVGSSTGEKNERTSVAGTVRKCWPNRVAKEQISRRLDGNQYLFLPPNRYIFHGAEVYSDSEDDVLSSSSCGSNSDSGTCQSPSLEEPMEDESEIEEFYNGLEDEPDVPERAGGAGFGTDGDDQEAINEAISVKQEVTDMNYPSNKS
western blot with the acetyl H1-K26 antibody after treatment with SirT1 [2]: resulted in decreased immunoreactivity
nicotinamide exchange reaction (NER) with H1 as acetylated substrate [3]: Histone H1 served as substrate in the SirT1-dependent NER assay
release of [3H]-acetyl label from p300-acetylated H1 [3]: SirT1 -released up to 70% of the total label
release of [3H]-acetyl label from p300-acetylated recombinant H1b [1]: The same result was observed using recombinant human H1b

B3: recombinant SirT3 (protein)
chain: MAFWGWRAAAALRLWGRVVERVEAGGGVGPFQACGCRLVLGGRDDVSAGLRGSHGARGEPLDPARPLQRPPRPEVPRAFRRQPRAAAPSFFFSSIKGGRRSISFSVGASSVVGSGGSSDKGKLSLQDVAELIRARACQRVVVMVGAGISTPSGIPDFRSPGSGLYSNLQQYDLPYPEAIFELPFFFHNPKPFFTLAKELYPGNYKPNVTHYFLRLLHDKGLLLRLYTQNIDGLERVSGIPASKLVEAHGTFASATCTVCQRPFPGEDIRADVMADRVPRCPVCTGVVKPDIVFFGEPLPQRFLLHVVDFPMADLLLILGTSLEVEPFASLTEAVRSSVPRLLINRDLVGPLAWHPRSRDVAQLGDVVHGVESLVELLGWTEEMRDLVQRETGKLDGPDK
release of [3H]-acetyl label from p300-acetylated recombinant H1b [1]: SirT2 or SirT3 failed to significantly deacetylate H1b
